Source: the DeepSol protein solubility set

Experiment: soluble on expression in E. coli; label from the status in PepcDB or PDB records
In the case of “SLSWDSVVERIRIFLVESPIKMARLQGVGNVKGSVKRVLLEVTSADGIVGWGEAAPWEVFTGTPEAAFSALDIYLRPLILGAPIKRVRELMARMDKMLVGHGEAKAAVEMALLDILGKATGLSVADLLGGRVRDRIPLSFSIADPDFDADLERMRAMVPAGHTVFKMKTGVKPHAEELRILETMRGEFGERIDLRLDFNQALTPFGAMKILRDVDAFRPTFIEQPVPRRHLDAMAGFAAALDTPILADESCFDAVDLMEVVRRQAADAISVKIMKCGGLMKAQSLMAIADTAGLPGYGGTLWEGGIALAAGTQLIAATPGISLGCEFYMPHHVLTEDVLEERIANSAGHVIVPDGPGLGISISEASLRGNAKILAER”, the “soluble on expression in E. coli” value was “soluble”. In the case of “SLVASGYPLSQTFGHGDIHFLPPELADARTSKIKVPFQSLLCDGEDEFRKGARYVLREGVDFIKIFVTGGVASQKDKPEFPQMTRGEIAAVVEEARRAGRLVHAHAESSEGYINAVEEGVKTLAHGMDLNQDAINLSVEKDVTLIPTLSIVDVALKFGPSNNLPEWMLEKLKEVHEIHAESIKRAYRERVRLATGTDFFIGAKEVQLYGLNSLEIKLLVGLGVKPMDALKAVIKEGEIVKQS”, the “soluble on expression in E. coli” value was “not soluble”. With “SLWASADAIQQKLADLEKRSGGRLGVALINTADDSQTLYRGDERFAMCSTGKVMAAAAVLKQSESNPEVVNKRLEIKKSDLVVWSPITEKHLQSGMTLAELSAAALQYSDNTAMNKMISYLGGPEKVTAFAQSIGDVTFRLDRTEPALNSAIPGDKRDTTTPLAMAESLRKLTLGNALGEQQRAQLVTWLKGNTTGGQSIRAGLPASWAVGDKTGAGDYGTTNDIAVIWPENHAPLVLVTYFTQPQQDAKSRKEVLAAAAKIVTEGL” the “soluble on expression in E. coli” value was “soluble”. For “SLYRIVLGKVSTLSAAPLPPGLREQAPQGPRRERWLAGRALLSHTLSPLPEIIYGEQGKPAFAPETPLWFNLSHSGDDIALLLSDEGEVGCDIEVIRPRANWRWLANAVFSLGEHAEMDAVHPDQQLEMFWRIWTRKEAIVKQRGGSAWQIVSVDSTYHSSLSVSHCQLENLSLAICTPTPFTLTADSVQWIDSVN”, the “soluble on expression in E. coli” value was “not soluble”. For “SMANHLVKPDSRNCKRARELEPQVSDSPQVSSLGKSESSLSEASGLFYKEEALEKDLSDMSKEINLMLSTYAKILSERAAVDASYIDEIDGLFKEANIIENFLVQKREFLKQRFTVITNTLHK”, the “soluble on expression in E. coli” value was “soluble”. With “SMDSSALPDPGFQKITLSSSSEEYQKVWNLFNRTLPFYFVQKIERVQNLALWEVYQWQKGQMQKQNGGKAVDERQLFHGTSAIFVDAICQQNFDWRVCGVHGTSYGKGSYFARDAAYSHHYSKSDTQTHTMFLARVLVGEFVRGNASFVRPPAKEGWSNAFYDSCVNSVSDPSIFVIFEKHQVYPEYVIQYTTSSKPS” the “soluble on expression in E. coli” value was “soluble”. With “SMGGPQYGIAREDVVLNRILGEGFFGEVYEGVYTNHKGEKINVAVKTCKKDCTLDNKEKFMSEAVIMKNLDHPHIVKLIGIIEEEPTWIIMELYPYGELGHYLERNKNSLKVLTLVLYSLQICKAMAYLESINCVHRDIAVRNILVASPECVKLGDFGLSRYIEDEDYYKASVTRLPIKWMSPESINFRRFTTASDVWMFAVCMWEILSFGKQPFFWLENKDVIGVLEKGDRLPKPDLCPPVLYTLMTRCWDYDPSDRPRFTELVCSLSDVYQMEKDIAME” the “soluble on expression in E. coli” value was “soluble”. With “SMKYKLNVLLAEIALIGTGNHYHEEANCIAEWLHLKGEEEAVQLIRLSSLMNRGDYASALQQGNKLAYPDLEPWLALCEYRLGLGSALESRLNRLARSQDPRIQTFVNGMREQLKT” the “soluble on expression in E. coli” value was “soluble”. For “SNAFHPVYSVQLEQKLVEKFNLKRALISLDQPNTNEQRKQVAALVSSYLNNNLQEGMAVAVGQGQNVAAVADHAGIVTQRNARFVSAIGGTHRSGDIINADHICRRLAKKYGGSSETLYAPAYVNDPSLRSAFMEHATIKETLSQARKAEFALVGIGDMDENSHMVKLGFFTPKEFVEARLNDGIVGDIGGFDFFKLDGTDADTLMRGRVIGLEMEDLRQIPNVVAMASESRKALSIMGALRTGVIDVLATSVSCAMALLNLAENEE”, the “soluble on expression in E. coli” value was “soluble”. In the case of “SNAGLIDESEQRLVDNIFEFEEKKIREIMVPRTDMVCIYESDSEEKILAILKEEGVTRYPVCRKNKDDILGFVHIRDLYNQKINENKIELEEILRDIIYISENLTIDKALERIRKEKLQLAIVVDEYGGTSGVVTIEDILEEIVGEIQ”, the “soluble on expression in E. coli” value was “soluble”. With “SNAKIIGYARVSFNAQKDDLERQIQLIKSYAEENGWDIQILKDIGSGLNEKRKNYKKLLKMVMNRKVEKVIIAYPDRLTRFGFETLKEFFKSYGTEIVIINKKHKTPQEELVEDLITIVSHFAGKLYGMHSHKYKKLTKTVKEIVREEDAKEKE” the “soluble on expression in E. coli” value was “soluble”. With “SNAMHSDALSWGHGPRLFEVFLEPTCPFSVKAFFKLDDLLAQAGEDNVTVRIRLQSQPWHMFSGVIVRCILAAATLEGGKESAKAVMTAVASHREEFEFEHHAGGPNLDATPNDIIARIERYSGLALAEAFANPELEHAVKWHTKYARQNGIHVSPTFMINGLVQPGMSSGDPVSKWVSDIG” the “soluble on expression in E. coli” value was “soluble”. With “SNAMIVGIGIDIIELNRIEKMLDGKLKFMERILTENERNVAKGLKGSRLTEFVAGRFAAKEAYSKAVGTGIGKEVSFLDIEVRNDDRGKPILITSTEHIVHLSISHSKEFAVAQVVLESSSS” the “soluble on expression in E. coli” value was “soluble”. With “SNAMKAIIKEDVQASLERYADRPVYIHLETTTGSYSAHLNEKNMTVVAYIRNAKVTYHQAKIKGNGPYRVGLKTEEGWIYAEGLTEYTVDEENRLLMAGHLPGGKLAISLQISEKPFTV” the “soluble on expression in E. coli” value was “soluble”. With “SNAMKLIAIDLDGTLLNSKHQVSLENENALRQAQRDGIEVVVSTGRAHFDVMSIFEPLGIKTWVISANGAVIHDPEGRLYHHETIDKKRAYDILSWLESENYYYEVFTGSAIYTPQNGRELLDVELDRFRSANPEADLSVLKQAAEVQYSQSGFAYINSFQELFEADEPIDFYNILGFSFFKEKLEAGWKRYEHAEDLTLVSSAEHNFELSSRKASKGQALKRLAKQLNIPLEETAAVGDSLNDKSMLEAAGKGVAMGNAREDIKSIADAVTLTNDEHGVAHMMKHLL” the “soluble on expression in E. coli” value was “soluble”. In the case of “SNAMRLVADSACDIKELRGMVFKAVPLTISTDNEEFCDDGQLDIHRMLDILEKHKGRSYTACPGIDAWLEAFGDDDEIFVVTITAGMSGTYNSAMAARAVYLEEHPQAKVRVIDSKSTGPQMRIILEQLQQMIEEGKKFEEIDGAIDAYMQKTRLFCSLKSLHNLAQNGRVSKVVASAAEVLGISVIGTASSHGTLEAIGKCRGDKKLLVKLQALLDDAGYEGGKLRICHVENEALADKIADMIKQAYGTTDVCVYKAGGLCSYYAERGGIILSCETK”, the “soluble on expression in E. coli” value was “soluble”. With “SNAMVEAIIFDMDGVLFDTEKYYYDRRASFLGQKGISIDHLPPSFFIGGNTKQVWENILRDEYDKWDVSTLQEEYNTYKQNNPLPYKELIFPDVLKVLNEVKSQGLEIGLASSSVKADIFRALEENRLQGFFDIVLSGEEFKESKPNPEIYLTALKQLNVQASRALIIEDSEKGIAAGVAADVEVWAIRDNEFGMDQSAAKGLLDSLTDVLDLI” the “soluble on expression in E. coli” value was “soluble”. For “SNASAFTEGTDYMVLEKPIPNADKTLIKVFSYACPFCYKYDKAVTGPVSDKVADLVTFTPFHLETKGEYGKQASEVFAVLIAKDKAAGISLFDAKSQFKKAKFAWYAAYHDKKERWSDGKDPAAFIKTGLDAAGMSQADFEAALKDPAVQETLEKWKAAYDVAKIQGVPAYVVNGKYLIYTKNIKSIDSMAELVRELATKK”, the “soluble on expression in E. coli” value was “soluble”. For “SNKDLVHIGVLQYVEHPSLSATRKGFIEELKEEGYVDGKNIKIDYQNAQGDQSNLQTISQSLIEDNDVMLAIATPAAQSLSSLTKGKPILFTAVTDPVSAKLVKSMDNVGGNVTGTSDMSPINKQVELLKKVFPNTKKVGIMYTTSERNSEVQVEEAKKYFKEAGIETVIKGISSTNDIQDTAKSLMSQTEVIFIPTDNTIVSAINTLVDLSKETKVPVVGSDAGSVEKGVLFTYGTNYEALGRQTGKLAGRVLRGEKVKDIDAEYPKTLNVVVNHDMAKKLGIDVSSISDEESKVSTKDDKPIAK”, the “soluble on expression in E. coli” value was “not soluble”. With “SNSLHWPTSLPSGDAFSSVGTHRFVQKVEEMVQNHMTYSLQDVGGDANWQLVVEEGEMKVYRREVEENGIVLDPLKATHAVKGVTGHEVCNYFWNVDVRNDWETTIENFHVVETLADNAIIIYQTHKRVWPASQRDVLYLSVIRKIPALTENDPETWIVCAFSVDHDSAPLNNRCVRAKINVAMICQTLVSPPEGNQEISRDNILCKITYVANVNPGGWAPASVLRAVAKREYPKFLKRFTSYVQEKTAGKPILF” the “soluble on expression in E. coli” value was “soluble”. With “SPCKYSRSEVVLTFFERSPLDQVLKNDNVHKIQPSFQSPVKISEIMRSNGFCLANTETIVIDHSIPNGRDQQLGVDQTEHLFENGSEFPSELEDGDDPAAYVTNLSYYHLVPFETDIWD” the “soluble on expression in E. coli” value was “soluble”. In the case of “SPINPYKDHMSVLKAYYAMNMEPNSDELLKISIAVGLPQEFVKEWFEQRKVYQYSNSR”, the “soluble on expression in E. coli” value was “soluble”. With “SPRPPDDPGFGPHQRLEKLDSLLSDYDILSLSNIQQHSVRKRDLQTSTHVETLLTFSALKRHFKLYLTSSTERFSQNFKVVVVDGKNESEYTVKWQDFFTGHVVGEPDSRVLAHIRDDDVIIRINTDGAEYNIEPLWRFVNDTKDKRMLVYKSEDIKNVSRLQSPKVCGYLKVDNEELLPKGLVDREPPEGKT” the “soluble on expression in E. coli” value was “soluble”. For “SPVRTECPPPAGASTTSAASLIPPPPINTQQPGVATSLLYSGSKFRGHQKSKGNSYDVEVVLQHVDTGNSYLCGYLKIKGLTEEYPTLTTFFEGEIISKKHPFLTRKWDADEDVDRKHWGKFLAFYQYAKSFNSDDFDYEELKNGDYVFMRWKEQFLVPDHTIKDISGASFAGFYYICFQKSAASIEGYYYHRSSEWYQSLNLTHVPEHSAPIYEFR”, the “soluble on expression in E. coli” value was “soluble”. In the case of “SQFDILCKTPPKVLVRQFVERFERPSGEKIASCAAELTYLCWMITHNGTAIKRATFMSYNTIISNSLSFDIVNKSLQFKYKTQKATILEASLKKLIPAWEFTIIPYNGQKHQSDITDIVSSLQLQFESSEEADKGNSHSKKMLKALLSEGESIWEITEKILNSFEYTSRFTKTKTLYQFLFLATFINCGRFSDIKNVDPKSFKLVQNKYLGVIIQCLVTETKTSVSRHIYFFSARGRIDPLVYLDEFLRNSEPVLKRVNRTGNSSSNKQEYQLLKDNLVRSYNKALKKNAPYPIFAIKNGPKSHIGRHLMTSFLSMKGLTELTNVVGNFSDKRASAVARTTYTHQITAIPDHYFALVSRYYAYDPISKEMIALKDETNPIEEWQHIEQLKGSAEGSIRYPAWNGIISQEVLDYLSSYINRRIGHHHHHH”, the “soluble on expression in E. coli” value was “soluble”. In the case of “SQVARWLGLDIPSPPIGSLFGVEIPEETGTKLEERVVDASMLSHGDLLMNLSLRDEELVILVRRGEGYRVPKGRMHLQVGDVLLIVSEKNLSQTLTSGDPENHPGLLQRLKHRLLRR”, the “soluble on expression in E. coli” value was “not soluble”. In the case of “SREIDYTAYPWFAGNMERQQTDNLLKSHASGTYLIRERPAEAERFAISIKFNDEVKHIKVVEKDNWIHITEAKKFDSLLELVEYYQCHSLKESFKQLDTTLKYPY”, the “soluble on expression in E. coli” value was “soluble”. With “SRILVSIGESFGTSEKFQKINQMVCNSDRVLKRSAEGSNPPKPLKK” the “soluble on expression in E. coli” value was “soluble”. With “SRMVLRGLLSEHPKKQMIPVIIYGAGRSGRQLLEAVKQMREYSAAAFVDDDPKLWHTVIYDLAVYQPDAIAFLIERYGVEKILLAIPGATQEQRRRIINKLEAYPCEVLTIPGMKDLMDGKISIGTLKKISVSDLLGRDSVAPDDRLMSADIEGKTVMVTGAGGSIGSELCRQIIRRRPEKLLLFELSEFALYAIEKELRETCIQKRLDTEILPFLGSVQNRTLLE” the “soluble on expression in E. coli” value was “not soluble”.
